pKd: −log10 of the molar value.

Among the data in PMC9537296 (Scientific Reports, 2022) are response rate and Kd values, retold here.

The subject of test [1] is hyperinsulinemic hypoglycemia. The following applies: meta-analysis of six cohorts (1142 subjects); cited from earlier work. From the text: Diazoxide, a first-line therapy, is a nondiuretic benzothiadizine originally formulated as a peripheral vasodilator for the treatment of hypertension. […] Octreotide—a synthetic peptide analog of somatostatin—has been frequently used as a second-line therapy to treat patients with CHI who are not res ...

A further test has as its target T1, FcγRIA (Homo sapiens, UniProt P12314).
T1 construct: purchased
In words: FcγRIA binding by SPR. The note with it: SPR BIACORE T200, 25 °C, steady-state affinity fit; read-out: Binding affinities (KD) FcγRIA. As to the method: (§1) All experiments were carried out on a BIACORE T200 instrument (GE Healthcare, USA) at 25 °C. Amine coupling chemistry was used to immobilize FcγRs on the surface of a CM5 sensor chip. For activation, a mixture of NHS and EDC solution was injected onto a CM5 sensor chip for 7 min at a flow rate of 10 μL/min. FcγRIA, FcγRIIA, FcγRIIB/C, FcγRIIIA, and FcγRIIIB were immobilized on CM5 chips by injecting 5 μg/mL of FcγRIA, 10 μg/mL of FcγRIIA, 2 μg/mL of FcγRIIIA, 10 μg/mL of FcγRIIIB, and 10 μg/mL of FcγRIIB/C diluted with 10 mM sodium acetate (pH 4.5) onto CM5 chips at a flow rate of 5 μL/min. The target RU was 1500 RU for FcγRIA and FcγRIIA, 3,000 RU for FcγRIIB/C and FcγRIIIB, and 1,000 RU for FcγRIIIA. To deactivate unreacted moieties, the chip surface was blocked with 1 M ethanolamine/HCl (pH 8.5) for 7 min at a flow rate of […]. HMC001 and I.V.-Globulin SN were diluted with running buffer to 500, 250, 125, 62.5, and 31.25 nM. HM15136 was diluted with running buffer to 486, 243, 121.5, 60.75, and 30.38 nM. The test materials were injected for 10 min (for Fc immobilized with FcγRIA and FcγRIIA) or 15 min (for Fc immobilized with FcγRIIIA, FcγRIIIB, and FcγRIIB/C) for association, followed by 10 min-dissociation at 20 μL/min. Binding affinity was evaluated with a steady-state affinity fitting model in BIACORE T200 Evaluation Software version 3.0. […]
Background: SPR reads the build-up and loss of mass on a sensor chip optically.

The target of the next test is T2, FcγRIIIA (Homo sapiens, UniProt P08637).
T2 construct: purchased
Briefly: FcγRIIIA binding by SPR. The following applies: SPR BIACORE T200, 25 °C, steady-state affinity fit; read-out: Binding affinities (KD) FcγRIIIA. As to the method: as §1

In a further test the target is T3, FcγRIIIB (Homo sapiens, UniProt O75015).
T3 construct: purchased
Briefly: FcγRIIIB binding by SPR. The note with it: SPR BIACORE T200, 25 °C, steady-state affinity fit; read-out: Binding affinities (KD) FcγRIIIB. As to the method: as §1

Another test concerns the target T4, FcγRIIA (Homo sapiens, UniProt P12318).
T4 construct: purchased
T4 sequence (P12318 34-317): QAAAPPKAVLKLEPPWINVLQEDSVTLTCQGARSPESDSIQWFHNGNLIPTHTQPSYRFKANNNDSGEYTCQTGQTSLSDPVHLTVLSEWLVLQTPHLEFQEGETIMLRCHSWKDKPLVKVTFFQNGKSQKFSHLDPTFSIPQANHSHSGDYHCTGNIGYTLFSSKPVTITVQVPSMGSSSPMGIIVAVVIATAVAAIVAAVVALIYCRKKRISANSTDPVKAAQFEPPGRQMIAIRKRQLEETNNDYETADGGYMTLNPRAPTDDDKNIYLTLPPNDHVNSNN
In words: FcγRIIA binding by SPR. The note with it: SPR BIACORE T200, 25 °C, steady-state affinity fit; read-out: Binding affinities (KD) FcγRIIA. As to the method:
as §1

The target of the next test is human C1q (Homo sapiens, UniProt P02745+P02746+P02747). Briefly: C1q binding by SPR. The following applies: SPR BIACORE T200, test material immobilized, steady-state affinity fit; read-out: Binding affinities (KD) C1q.
For another test, the target named is T5, FcγRIIB/C (Homo sapiens, UniProt P31994).
T5 construct: purchased
T5 sequence (P31994 43-310): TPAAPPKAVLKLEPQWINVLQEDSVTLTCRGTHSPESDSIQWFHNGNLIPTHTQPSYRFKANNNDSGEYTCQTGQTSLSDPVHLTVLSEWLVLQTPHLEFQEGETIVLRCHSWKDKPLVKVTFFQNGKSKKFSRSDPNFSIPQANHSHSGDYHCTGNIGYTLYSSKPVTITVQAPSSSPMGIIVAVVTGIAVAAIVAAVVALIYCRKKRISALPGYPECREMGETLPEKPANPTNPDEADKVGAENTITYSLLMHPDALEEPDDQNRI
In words: FcγRIIB/C binding by SPR. The note with it: SPR BIACORE T200, 25 °C, steady-state affinity fit; read-out: Binding affinities (KD) FcγRIIB/C.

T3 sequence (O75015 17-233): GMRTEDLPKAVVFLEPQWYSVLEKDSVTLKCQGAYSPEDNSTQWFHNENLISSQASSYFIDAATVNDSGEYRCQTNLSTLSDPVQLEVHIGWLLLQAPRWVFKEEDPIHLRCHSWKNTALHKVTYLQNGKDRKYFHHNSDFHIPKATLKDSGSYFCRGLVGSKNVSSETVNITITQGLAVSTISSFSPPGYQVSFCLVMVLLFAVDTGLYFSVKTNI
Chain of human C1q (P02745 23-245): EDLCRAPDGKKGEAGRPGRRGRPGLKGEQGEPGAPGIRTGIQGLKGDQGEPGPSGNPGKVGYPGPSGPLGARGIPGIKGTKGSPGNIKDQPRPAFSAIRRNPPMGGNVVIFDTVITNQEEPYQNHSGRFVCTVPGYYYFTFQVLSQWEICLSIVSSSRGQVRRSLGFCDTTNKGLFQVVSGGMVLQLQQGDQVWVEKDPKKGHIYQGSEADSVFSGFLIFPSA
Chain of human C1q (P02746 28-253): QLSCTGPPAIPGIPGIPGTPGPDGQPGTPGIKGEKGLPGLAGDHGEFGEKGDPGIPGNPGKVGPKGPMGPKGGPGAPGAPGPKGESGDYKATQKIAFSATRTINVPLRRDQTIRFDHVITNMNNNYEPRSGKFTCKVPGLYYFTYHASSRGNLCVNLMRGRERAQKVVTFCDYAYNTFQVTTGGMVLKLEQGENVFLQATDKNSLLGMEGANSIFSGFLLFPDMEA
Chain of human C1q (P02747 29-245): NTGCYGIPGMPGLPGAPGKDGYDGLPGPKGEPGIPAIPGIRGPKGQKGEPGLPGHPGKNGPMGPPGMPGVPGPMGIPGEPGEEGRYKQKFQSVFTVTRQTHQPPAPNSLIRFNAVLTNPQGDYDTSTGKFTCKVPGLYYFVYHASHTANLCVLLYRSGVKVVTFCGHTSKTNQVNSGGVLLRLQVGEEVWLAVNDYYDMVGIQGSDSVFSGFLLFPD
T2 sequence (P08637 17-254): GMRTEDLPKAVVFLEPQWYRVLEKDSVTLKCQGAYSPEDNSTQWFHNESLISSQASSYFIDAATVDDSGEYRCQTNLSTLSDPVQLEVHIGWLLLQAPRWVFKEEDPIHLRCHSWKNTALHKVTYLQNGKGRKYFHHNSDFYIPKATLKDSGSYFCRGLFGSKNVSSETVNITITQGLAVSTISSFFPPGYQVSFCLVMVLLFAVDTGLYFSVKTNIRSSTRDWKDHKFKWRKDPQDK
T1 sequence (P12314 16-374): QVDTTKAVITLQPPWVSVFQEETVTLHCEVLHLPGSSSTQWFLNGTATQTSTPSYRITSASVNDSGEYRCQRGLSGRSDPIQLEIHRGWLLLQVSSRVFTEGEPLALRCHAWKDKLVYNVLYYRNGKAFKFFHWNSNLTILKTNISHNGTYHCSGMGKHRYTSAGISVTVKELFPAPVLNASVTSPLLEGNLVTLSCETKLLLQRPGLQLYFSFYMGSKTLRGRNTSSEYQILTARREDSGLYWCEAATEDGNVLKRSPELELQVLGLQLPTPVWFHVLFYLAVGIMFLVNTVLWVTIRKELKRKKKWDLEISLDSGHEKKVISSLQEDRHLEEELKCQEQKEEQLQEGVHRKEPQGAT
Procedure for FcγRIIB/C: All experiments were carried out on a BIACORE T200 instrument (GE Healthcare, USA) at 25 °C. Amine coupling chemistry was used to immobilize FcγRs on the surface of a CM5 sensor chip. For activation, a mixture of NHS and EDC solution was injected onto a CM5 sensor chip for 7 min at a flow rate of 10 μL/min. FcγRIA, FcγRIIA, FcγRIIB/C, FcγRIIIA, and FcγRIIIB were immobilized on CM5 chips by injecting 5 μg/mL of FcγRIA, 10 μg/mL of FcγRIIA, 2 μg/mL of FcγRIIIA, 10 μg/mL of FcγRIIIB, and 10 μg/mL of FcγRIIB/C diluted with 10 mM sodium acetate (pH 4.5) onto CM5 chips at a flow rate of 5 μL/min. The target RU was 1500 RU for FcγRIA and FcγRIIA, 3,000 RU for FcγRIIB/C and FcγRIIIB, and 1,000 RU for FcγRIIIA. To deactivate unreacted moieties, the chip surface was blocked with 1 M ethanolamine/HCl (pH 8.5) for 7 min at a flow rate of 10 L/min. […] The test materials were injected for 10 min (for Fc immobilized with FcγRIA and FcγRIIA) or 15 min (for Fc immobilized with FcγRIIIA, FcγRIIIB, and FcγRIIB/C) for association, followed by 10 min-dissociation at 20 μL/min. Binding affinity was evaluated with a steady-state affinity fitting model in BIACORE T200 Evaluation Software version 3.0. Blank-subtracted sensograms (RU form reference channel and blanks were subtracted) were used for evaluation.
Procedure for human C1q: The target immobilization of the three materials was 3000 RU. To stabilize the sensor chip, running buffer (HBS-EP) was injected for 10 min, followed by 10 min dissociation at 25 μL/min before test material injection. Then, regeneration buffer was injected for 30 s at 25 μL/min; this step was repeated three times. C1q was diluted with running buffer to 50, 25, 12.5, 6.25, and 3.125 nM and injected for 6 min for association, followed by 10-min dissociation at 25 μL/min. The remaining C1q was regenerated with regeneration buffer for 30 s at 25 μL/min; this step was repeated three times. Binding affinity was evaluated with a steady-state affinity fitting model in BIACORE T200 Evaluation Software version 3.0. Blank-subtracted sensograms (RU form reference channel and blank were subtracted) were used for evaluation.

For the compound `CC1=NS(=O)(=O)c2cc(Cl)ccc2N1` [diazoxide, Diazoxide], the response rate in test [1] is 71%.
On to “HMC001: Fc fragment of human immunoglobulin G4, derived from Escherichia coli, lacks glycosylation”, for which the pKd with FcγRIA, in the test with FcγRIIIA, in the test with FcγRIIIB, in the test with FcγRIIA, with human C1q and with FcγRIIB/C was less than 6.30 throughout.
